Laboratory results from the supplement of paper PMC9170038.

Test system: MS2 coat protein
Experiment: apparent KD of MS2 coat protein; designed switch direction (-1 OFF switch, 1 ON switch): -1; higher = weaker reporter binding
Procedure, shortened: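 Designed RNA switches sharing common flanks were transcribed on Illumina chips by stalled E. coli RNA polymerase. They were titrated with SNAP-549-labelled MS2 coat protein, from 0.7 or 1.5 nM doubling to 3 µM, in Tris-HCl pH 7.5 buffer with KCl, MgCl2, BSA, DTT, tRNA and Tween-20. Titrations ran without input, with 200 uM small-molecule ligand, or with an oligonucleotide input. The apparent KD of each design is the median over its clusters, after curve-fitting of normalised cluster fluorescence.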

[1] = Eterna round: R95, input ligand: microRNA oligo, concentration not stated
[2] = Eterna round: R95, input ligand: FMN 200 uM
[3] = Eterna round: R95, input ligand: none
[4] = input ligand: microRNA oligo, concentration not stated

## GUGUGCUGAGGAUAUACAGAGGAAGAUAAUACAAUAUAAGUACAUGAGGAUCACCCAUGUAGAAGGCAGAGUGU [Excluse me!! 11 - Jieux - Exclusion 2] (puzzle: Exclusion 2)
[1]
  apparent KD of MS2 coat protein: 0.0234 µM

## ACUAGAUGAGGAUAUGCAUAUUUUCGUGUUCUUCUAGAUUAACAUGAGGAUCACCCAUGUAGAAGGCGUCUGGU [Exclusion 2 - 19] (puzzle: Exclusion 2)
[1]
  apparent KD of MS2 coat protein: 0.0297 µM

## CAGUACUGAGGAUAUACAUGAGGAUCACCCAUGUGUCCUAGCUAGGAAACUAGCAAAAGUAGAAGGCAGUACUG [Fiskers Ex 3 828 mod 5] (puzzle: Exclusion 3)
[2]
  apparent KD of MS2 coat protein: 0.249 µM
[1]
  apparent KD of MS2 coat protein: 0.0212 µM
[3]
  apparent KD of MS2 coat protein: 0.0229 µM

## UAUUAGUAAGGAUAUCCCACGUAGGACGAAAGUCCUACGUGGGAGAAGGUACAUGAGGAUCACCCAUGUCUAUU [Mod of Fisker 12 - Jieux - Exclusion 4] (Eterna round: R97, puzzle: Exclusion 4)
Input ligand: FMN 200 uM
  apparent KD of MS2 coat protein: 0.0204 µM
Input ligand: none
  apparent KD of MS2 coat protein: 0.0187 µM

## ACAAGCUUAAAAGGUGAUAACAUGAGGAUCACCCAUGUUCGUCUUAUAAAGAUCCUAUGUCGAAAGACGUAGGAUCA [Sensor 3, v1 - 69] (puzzle: Sensor v3, turn-off variant 1)
[2]
  apparent KD of MS2 coat protein: 0.0212 µM
[1]
  apparent KD of MS2 coat protein: 0.028 µM
[3]
  apparent KD of MS2 coat protein: 0.022 µM

## CCUCUAUUUGUGAGGAUAUCGAUAAAAUGGAUUGUCGAGAAGGCACAUGAGGAUCACCCAUGUAUUGAACAGCA [JR_BMEx4_Sub022] (Eterna round: R97, puzzle: Brourd's mod of Exclusion 4)
Input ligand: FMN 200 uM
  apparent KD of MS2 coat protein: 0.231 µM
Input ligand: none
  apparent KD of MS2 coat protein: 0.0404 µM

## AGAAAUGCCCAUGGCCGCAAGCUUUUUACUUGUCUUACCACAUGAGGAUCACCCAUGUGACAUGGGCUCCUUAUAAU [Oranla] (puzzle: Sensor v3, turn-off variant 2)
[2]
  apparent KD of MS2 coat protein: 0.0158 µM
[1]
  apparent KD of MS2 coat protein: 0.0074 µM
[3]
  apparent KD of MS2 coat protein: 0.013 µM

## UCAUGAUGAUAGGAUAUCGCGCGGUGAAAUGCGCGAGAAGGAUUAACAUGAGGAUCACCCAUGUUGGUCUGUUA [Eternabot (L2) Solution 69] (Eterna round: R97, puzzle: Exclusion 6)
Input ligand: FMN 200 uM
  apparent KD of MS2 coat protein: 0.0279 µM
Input ligand: none
  apparent KD of MS2 coat protein: 0.0153 µM

## UGAUCAGACCGAGGAUAUAUAUGUAGGACGCACGUGAGUGCGUCCAAUACAUGAGGAUCACCCAUGUAGAAGGCGGUCUGAUCU [JL ENG2 1.97] (Eterna round: R96, puzzle: Exclusion NG 2)
Input ligand: FMN 200 uM
  apparent KD of MS2 coat protein: 0.0185 µM
[4]
  apparent KD of MS2 coat protein: 0.0099 µM
Input ligand: none
  apparent KD of MS2 coat protein: 0.0142 µM

## GUGAAGUAAGGAUAUACAUGAGGAUCACCCAUGUAAGGGAAGGUGAUGGGAGUAGAUAGUAGAAGGUACGAGGA [JR_Exclu3_Sub066] (puzzle: Exclusion 3)
[1]
  apparent KD of MS2 coat protein: 0.103 µM

## UUAAUGUGAGGAUAUGGUAAAGAUAAGAUGAUGAAAGAACUCCAGAAGGCACAUGAGGAUCACCCAUGUAGAUG [JL-ex4-2.14 Jieux mod] (puzzle: Exclusion 4)
[1]
  apparent KD of MS2 coat protein: 0.0356 µM

## CCGACCCUAGGAUAUUGUACUGCUGACAUGAGGAUCACCCAUGUAUGUUAACUCGGCCGACGAGAAGGAGGCGAAA [BotMod 5 - Jieux - Exclusion 5] (Eterna round: R97, puzzle: Exclusion 5)
Input ligand: FMN 200 uM
  apparent KD of MS2 coat protein: 0.0217 µM
Input ligand: none
  apparent KD of MS2 coat protein: 0.0203 µM

## GAUGUGGGUUUCCGGAGUAACAUGAGGAUCACCCAUGUAGAAGUUGGAGGGAUAAUGCUUUUUGCUCGUUACACGUG [JR_SV3TOV1_Sub054] (puzzle: Sensor v3, turn-off variant 1)
[2]
  apparent KD of MS2 coat protein: 0.404 µM
[1]
  apparent KD of MS2 coat protein: 0.323 µM
[3]
  apparent KD of MS2 coat protein: 0.538 µM

## GUCAUCAAUCAUGGGAUAAACAUGAGGAUCACCCAUGUAUACAAGUUUUUUGCUCGUCUUAUAAUAAGAUUGAUGAC [Antenna 5 - Jieux - Sensor, turn-off variant 1] (Eterna round: R97, puzzle: Sensor, turn-off variant 1)
Input ligand: FMN 200 uM
  apparent KD of MS2 coat protein: 0.0137 µM
Input ligand: none
  apparent KD of MS2 coat protein: 0.0159 µM

## CCGAAUAAGCAGGAUAUCGUAUCGGAAACGAUACGAGAAGGGCUAACAUGAGGAUCACCCAUGUUCCUUAACGG [Fiskers Ex 6 - 15] (puzzle: Exclusion 6)
[1]
  apparent KD of MS2 coat protein: 0.0192 µM

## GGUUGGCGAGGAUAUACAUGAGGAUCACCCAUGUGAGAGAAAAAAGUGAGGAAGAAAAGUAGAAGGCGCUGACG [salish99-ex3-14] (Eterna round: R96, puzzle: Exclusion 3)
Input ligand: FMN 200 uM
  apparent KD of MS2 coat protein: 0.354 µM
[4]
  apparent KD of MS2 coat protein: 0.105 µM
Input ligand: none
  apparent KD of MS2 coat protein: 0.084 µM

## CAUACUCAAGUCAGGAUAUAGUCUCGGAUACGGAACUAGAAGGGACAUGAGGAUCACCCAUGUAGAGAGUAAAG [EX-4 Malc #27] (puzzle: Brourd's mod of Exclusion 4)
[2]
  apparent KD of MS2 coat protein: 0.0632 µM
[1]
  apparent KD of MS2 coat protein: 0.0378 µM
[3]
  apparent KD of MS2 coat protein: 0.0522 µM

## GAUUGAGAGCAGGAUAUAUUCCUGAUGUAUGAAGUAGAAGGGCUCACAUGAGGAUCACCCAUGUGAUCCUGAAA [Mat - Exclusion 6 - Eli Mod - D3] (Eterna round: R97, puzzle: Exclusion 6)
Input ligand: FMN 200 uM
  apparent KD of MS2 coat protein: 0.0138 µM
Input ligand: none
  apparent KD of MS2 coat protein: 0.014 µM
